# According to the DeepSol protein solubility set:
# Test: soluble on expression in E. coli; label from the status in PepcDB or PDB records
row,Sequence,soluble on expression in E. coli
1,MLRHNVPIRRDLDKIACDHGFDFHVIDNEIYWDESRAYRFTLRQIEEQIEKPTAELHQMCLEIVERAVRDEQSMQQLAIPPLYWDVIAESWRSRDPSLYGRMDFVWCGKDPVKLLEYNADTPTSLYESSYFQWLWLEDARRSGAIPRDADQYNAIQERLIARFSELYSREPLYFCCCEDTDEDRTTVLYLQDCAQQAGQETRFIYIEELGLGVGGVLTDLDDNVIRRAFKLYPLEWMMRDDNGPLLRKRREQWIEPLWKSILSNKGLLPLLWRFFPGHPNLLPAWFEGEKSLAAPGESSVRKPIYSREGGNVTIFDERQNVIDHADGDYADEPMIYQAFQPLPRFGDSYTLIGSWIIDDEASGMGIREDNTLITKDTSRFVPHYIAG,not soluble
2,MLRLATPLRSGLLSSAIRRHSACCGGEHKMSEAELKMSKLLTEGIDGCTRVEVHDVSNGCGSMFDVVVEAAGFKGKSKVAQHKQVTSILREQIKDMHGLTIKTKAA,not soluble
3,MLRLWEELNRVENLFLELLDDPKKKDVLLYLICYCQLVRRDGEYEVELPKLINCAEKPYKYISGNWQDVLLELGVLYLKDKKGKVYTGKEILLVKNPEGFKVGILPDYREDFYKFYTKLLKYWSVLNSRRTLGSNTTPDYYTPLLVHTFNEKLFKEAQYFSEILAMRFPKEKNLFLSVKLVSEFYREYAKTGRVKADNLNDAINFLSDTPDVFYSVNVKKFKKDIKKFLENLNKGEFYYITIEFASENRGKKRSILSKLWNFIKSLGGKRWNSRSSGMDYYSFIEHLLKKHRRQMMRSLESSTPRLQGT,not soluble
4,MLRNKAFVVRLYPNAAQAERINRTLGCARFVYNHFLARRIESYRQDGKGMIYAATDKALTLLKREEGTAWLAEVDKFALQQSLRDLERAYQNFFRTAKKSGKKVGFPKFKKKRTGEAYRTQFTNNNIEIGEGKLKLPKLGWVKTRGQRDMQGKILNVTVRRIHEGHYEASVLCEVEIPYLPAAPKFAAGVDVGIKDFAIVTDGKGEFEHHANPKYYRSSLRRLRKAQKTLSRRKKGSARYGRAKTTLARIHKRVANKRQDFIHKLTTSLVREYEITCTEHLKPDNMRKNRRLALSVSDAGWGEFIRQLEYKATWYGRLVSKISPYFPSSQICHDCGFKNPAVKNLAVREWTCPNCGETHDRDENAALNIRREGLVAAGMSDTQNAHGDCIRPTSVGSGLRSENHATSVVLEHHHHHH,soluble
5,MLRSAVSALYRASRSFSETVPRLSATPLGKQEPQLSLSYTCKVCNSREGPKTFAKSSYEKGVVIVTCSGCHNHHIIADNIGWFEDFKGKNIEDHLKTRGEAVKRRDTIKNENGIFEIQK,not soluble
6,MLRVRCLRGGSRGAEAVHYIGSRLGRTLTGWVQRTFQSTQAATASSRNSCAADDKATEPLPKDCPVSSYNEWDPLEEVIVGRAENACVPPFTIEVKANTYEKYWPFYQKQGGHYFPKDHLKKAVAEIEEMCNILKTEGVTVRRPDPIDWSLKYKTPDFESTGLYSAMPRDILIVVGNEIIEAPMAWRSRFFEYRAYRSIIKDYFHRGAKWTTAPKPTMADELYNQDYPIHSVEDRHKLAAQGKFVTTEFEPCFDAADFIRAGRDIFAQRSQVTNYLGIEWMRRHLAPDYRVHIISFKDPNPMHIDATFNIIGPGIVLSNPDRPCHQIDLFKKAGWTIITPPTPIIPDDHPLWMSSKWLSMNVLMLDEKRVMVDANEVPIQKMFEKLGITTIKVNIRNANSLGGGFHAWTCDVRRRGTLQSYLD,soluble
7,MLSIKGKKWRNWTGNVEGTPHYTMYPESIQDVVEVVGLARKKGKKIRVVGSGHSFTPLVQTEEVLVSLDELKGIVNIDAEKMVAEVWAGTKLYDLGKLLEEKGYAQENLGDIDSQSIAGAISTGTHGTGITFGSLSTQVIEITAVLSNGESIVCSETENVEYWRAFQLSLGMLGIIVKIKLKVIPAYSLVYESEKQSLSTVMNKLEEYKKHRHFEFFVFPYSDEVQVKLTNETTNTGSDLKWHKLKVELLENRMFSLLSKGCKWFPSISKGVSRLSAKAVPNTKIIGPSYEVFATSRTVPFYEMEYSIPSKYMRTVVEEISNLIEKKKYKVHFPIECRYVKGDDIWLSPAYGRDSAYIAVHMYKGMKYAAYFGEVEKIFLKYEGRPHWGKMHTLSYEQLQDIYPEFHSFLQARKSLDELGMFFNPYAEKLFIPLFAGQ,not soluble
8,MLSKISESLANLSGAERKVAECALAEPKWFVHAAVAEIAERASVSQPTVIRFCRSLGYKGLPEFKLALSASIGHEGMPYVHEELNADDDMASVVEKVLGNAAASL,not soluble
